In publication PMC4038516, “Crystal Structure of Penicillin-Binding Protein 3 (PBP3) from Escherichia coli” (PLoS ONE, 2014):

How the values were obtained:
[1] = target: the molecule itself; assay: dynamic light scattering + other: static light scattering; PBP3_(88–165), batch mode, 20°C, buffer and concentration as for crystallogenesis (7.5 mg/ml, 0.15 M NaCl, 0.1 M Tris pH 8, 1 mM EDTA)
[2] = target: the molecule itself; assay: dynamic light scattering + other: static light scattering; PBP3_(57–577), batch mode, 20°C, buffer and concentration as for crystallogenesis (18 mg/ml, 0.5 M NaCl, 20 mM Tris pH 8)

B1: PBP3_(88–165), Val88-Ser165 subdomain of Escherichia coli PBP3, strep-tag removed (domain or fragment, UniProt P0AD68 88-165, looked up)
chain: VKAIWADPKEVHDAGGISVGDRWKALANALNIPLDQLSARINANPKGRFIYLARQVNPDMADYIKKLKLPGIHLREES
notes: The tag is said to be removed before crystallization; Residues of the vector may remain at the N-terminus after the tag was removed; A selenomethionine form was used for phasing only; also called PBP3 Val88-Ser165 subdomain; source: E. coli C41(DE3) with pDML2042 (pET-52b(+)), purified (Strep-Tactin column), strep-tag removed; not shown: Strep-tag, N-terminal, cleaved
stoichiometry N [1]: 2

B2: PBP3_(57–577), soluble periplasmic form of Escherichia coli penicillin-binding protein 3 (domain or fragment, UniProt P0AD68 57-577, looked up)
chain: GDMRSLRVQQVSTSRGMITDRSGRPLAVSVPVKAIWADPKEVHDAGGISVGDRWKALANALNIPLDQLSARINANPKGRFIYLARQVNPDMADYIKKLKLPGIHLREESRRYYPSGEVTAHLIGFTNVDSQGIEGVEKSFDKWLTGQPGERIVRKDRYGRVIEDISSTDSQAAHNLALSIDERLQALVYRELNNAVAFNKAESGSAVLVDVNTGEVLAMANSPSYNPNNLSGTPKEAMRNRTITDVFEPGSTVKPMVVMTALQRGVVRENSVLNTIPYRINGHEIKDVARYSELTLTGVLQKSSNVGVSKLALAMPSSALVDTYSRFGLGKATNLGLVGERSGLYPQKQRWSDIERATFSFGYGLMVTPLQLARVYATIGSYGIYRPLSITKVDPPVPGERVFPESIVRTVVHMMESVALPGGGGVKAAIKGYRIAIKTGTAKKVGPDGRYINKYIAYTAGVAPASQPRFALVVVINDPQAGKYYGGAVSAPVFGAIMGGVLRTMNIEPDALTTGDKNEFV
notes: the ftsI gene encodes 588 residues and 11 C-terminal residues are removed by proteolytic cleavage; No tag is mentioned; also called FtsI; periplasmic domain of PBP3; source: E. coli W3110M (plasmid pDML232, with pDML237 for SecB), purified (S-Sepharose twice, Superdex 200)
stoichiometry N [2]: 2
